Kd data for three molecules are collected here from paper PMC10502159 (2023).

Usually Kd stands for a measure of binding affinity in units of concentration. Read a low Kd as higher affinity.

Experiment [1] concerns the target T1, TLR4 1-631 (Homo sapiens, UniProt O00206). In words: SPR.
The next experiment has as its target RAGE 1-344 (Homo sapiens, UniProt Q15109). Nature of the experiment: SPR. Background: In SPR one partner is held on a chip, and binding of the other changes the refractive index at the surface.
For experiment [2], the target named is T1, TLR4 1-631. Nature of the experiment: SPR (steady state).

T1 sequence (O00206 1-631): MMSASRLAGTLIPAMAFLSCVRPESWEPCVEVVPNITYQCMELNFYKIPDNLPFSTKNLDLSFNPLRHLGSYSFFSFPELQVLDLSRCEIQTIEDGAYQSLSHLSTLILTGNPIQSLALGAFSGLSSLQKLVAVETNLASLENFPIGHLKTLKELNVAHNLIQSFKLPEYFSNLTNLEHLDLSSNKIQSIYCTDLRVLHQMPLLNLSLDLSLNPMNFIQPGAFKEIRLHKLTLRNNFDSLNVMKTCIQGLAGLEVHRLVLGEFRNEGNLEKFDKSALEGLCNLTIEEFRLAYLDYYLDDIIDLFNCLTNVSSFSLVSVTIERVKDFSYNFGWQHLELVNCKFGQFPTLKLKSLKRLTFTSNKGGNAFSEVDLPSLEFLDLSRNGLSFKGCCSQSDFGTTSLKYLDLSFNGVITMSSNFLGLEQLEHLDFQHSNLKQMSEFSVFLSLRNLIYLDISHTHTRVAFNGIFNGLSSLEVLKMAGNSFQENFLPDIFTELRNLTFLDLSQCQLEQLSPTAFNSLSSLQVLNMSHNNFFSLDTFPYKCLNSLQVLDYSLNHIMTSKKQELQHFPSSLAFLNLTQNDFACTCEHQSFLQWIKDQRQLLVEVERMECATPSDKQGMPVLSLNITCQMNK
Chain of RAGE 1-344 (Q15109 1-344): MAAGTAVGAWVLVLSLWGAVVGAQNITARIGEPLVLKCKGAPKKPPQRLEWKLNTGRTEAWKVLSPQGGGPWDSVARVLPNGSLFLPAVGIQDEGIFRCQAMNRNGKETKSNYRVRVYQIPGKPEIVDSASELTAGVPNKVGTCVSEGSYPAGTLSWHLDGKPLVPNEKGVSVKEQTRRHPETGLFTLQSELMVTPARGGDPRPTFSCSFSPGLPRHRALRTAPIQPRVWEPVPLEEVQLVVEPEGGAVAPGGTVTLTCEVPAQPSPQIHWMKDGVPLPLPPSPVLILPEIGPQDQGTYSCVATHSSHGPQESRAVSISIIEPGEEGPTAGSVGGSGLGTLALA

B1: procathepsin L (pCTS-L) 17-333 (protein)
chain: ATLTFDHSLEAQWTKWKAMHNRLYGMNEEGWRRAVWEKNMKMIELHNQEYREGKHSFTMAMNAFGDMTSEEFRQVMNGFQNRKPRKGKVFQEPLFYEAPRSVDWREKGYVTPVKNQGQCGSCWAFSATGALEGQMFRKTGRLISLSEQNLVDCSGPQGNEGCNGGLMDYAFQYVQDNGGLDSEESYPYEATEESCKYNPKYSVANDTGFVDIPKQEKALMKAVATVGPISVAIDAGHESFLFYKEGIYFEPDCSSEDMDHGVLVVGYGFESTESDNNKYWLVKNSWGEEWGMGGYVKMAKDRRNHCGIASAASYPTV
modifications: mAb20 pre-exposed
For B1, the Kd with TLR4 1-631 [1] came to 1140 nM; with RAGE 1-344 it was 30.4 nM.

B2: procathepsin L (pCTS-L) 17-333 (protein)
chain: ATLTFDHSLEAQWTKWKAMHNRLYGMNEEGWRRAVWEKNMKMIELHNQEYREGKHSFTMAMNAFGDMTSEEFRQVMNGFQNRKPRKGKVFQEPLFYEAPRSVDWREKGYVTPVKNQGQCGSCWAFSATGALEGQMFRKTGRLISLSEQNLVDCSGPQGNEGCNGGLMDYAFQYVQDNGGLDSEESYPYEATEESCKYNPKYSVANDTGFVDIPKQEKALMKAVATVGPISVAIDAGHESFLFYKEGIYFEPDCSSEDMDHGVLVVGYGFESTESDNNKYWLVKNSWGEEWGMGGYVKMAKDRRNHCGIASAASYPTV
modifications: control c-mAb pre-exposed
With B2, the results for the Kd in the experiment with TLR4 1-631 [1] and in the experiment with RAGE 1-344 were 20.3 nM and 3.1 nM, respectively.

B3: procathepsin L (pCTS-L) 17-333 (protein)
chain: ATLTFDHSLEAQWTKWKAMHNRLYGMNEEGWRRAVWEKNMKMIELHNQEYREGKHSFTMAMNAFGDMTSEEFRQVMNGFQNRKPRKGKVFQEPLFYEAPRSVDWREKGYVTPVKNQGQCGSCWAFSATGALEGQMFRKTGRLISLSEQNLVDCSGPQGNEGCNGGLMDYAFQYVQDNGGLDSEESYPYEATEESCKYNPKYSVANDTGFVDIPKQEKALMKAVATVGPISVAIDAGHESFLFYKEGIYFEPDCSSEDMDHGVLVVGYGFESTESDNNKYWLVKNSWGEEWGMGGYVKMAKDRRNHCGIASAASYPTV
Turning to B3, the Kd in the experiment with TLR4 1-631 [2] is under 28.3 nM.
